From the supplement of paper PMC10567573

B1: CCND1 (parent)
chain: PEAEENKQIIRKHAQTFVALCATD
B2: ZNF649 (parent)
chain: DECEKAYFYMSCLVKHKRIHSREK

Variants of: B1
Experiment: protein stability index of a GFP-peptide fusion (GPS, HEK-293T) (PSI 1-6); higher = more stable
Conditions: c terminus: a fixed tail appended
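Further: lentivirally expressed fusions sorted by FACS into six bins by GFP to DsRed ratio, PSI derived from sequencing read proportions per bin multiplied by bin number.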

| Variant | protein stability index |
| --- | --- |
| SEAEENKQIIRKHAQTFVALCATD [P1S] | 2.34 |
| CEAEENKQIIRKHAQTFVALCATD [P1C] | 1.97 |
| FEAEENKQIIRKHAQTFVALCATD [P1F] | 2.44 |
| REAEENKQIIRKHAQTFVALCATD [P1R] | 2.59 |
| DEAEENKQIIRKHAQTFVALCATD [P1D] | 3.29 |
| LEAEENKQIIRKHAQTFVALCATD [P1L] | 2.76 |
| MEAEENKQIIRKHAQTFVALCATD [P1M] | 2.68 |
| IEAEENKQIIRKHAQTFVALCATD [P1I] | 2.36 |
| VEAEENKQIIRKHAQTFVALCATD [P1V] | 2.66 |
| NEAEENKQIIRKHAQTFVALCATD [P1N] | 2.52 |
| TEAEENKQIIRKHAQTFVALCATD [P1T] | 2.18 |
| GEAEENKQIIRKHAQTFVALCATD [P1G] | 2.78 |
| KEAEENKQIIRKHAQTFVALCATD [P1K] | 2.07 |
| EEAEENKQIIRKHAQTFVALCATD [P1E] | 3.45 |
| AEAEENKQIIRKHAQTFVALCATD [P1A] | 3.14 |
| HEAEENKQIIRKHAQTFVALCATD [P1H] | 3.19 |
| QEAEENKQIIRKHAQTFVALCATD [P1Q] | 2.78 |

Variants of: B2
Experiment: as above
Conditions: c terminus: a fixed tail appended

| Variant | protein stability index |
| --- | --- |
| DECEKAYFYMSCLVKHKRIHSWEK [R22W] | 1.71 |
| DECEKAYFYMSCLVKHKRIHSIEK [R22I] | 2.24 |
| DECEKAYFYMSCLVKHKRIHSFEK [R22F] | 2.09 |
| DECEKAYFYMSCLVKHKRIHSPEK [R22P] | 2.89 |
| DECEKAYFYMSCLVKHKRIHSMEK [R22M] | 2.22 |
| DECEKAYFYMSCLVKHKRIHSLEK [R22L] | 1.43 |
| DECEKAYFYMSCLVKHKRIHSTEK [R22T] | 2.38 |
| DECLKAYFYMSCLVKHKRIHSREK [E4L] | 2.18 |
| DECPKAYFYMSCLVKHKRIHSREK [E4P] | 2.45 |
| DECMKAYFYMSCLVKHKRIHSREK [E4M] | 1.44 |
| DECKKAYFYMSCLVKHKRIHSREK [E4K] | 1.66 |
| DECTKAYFYMSCLVKHKRIHSREK [E4T] | 2.88 |
| WECEKAYFYMSCLVKHKRIHSREK [D1W] | 2.2 |
| CECEKAYFYMSCLVKHKRIHSREK [D1C] | 1.98 |
| VECEKAYFYMSCLVKHKRIHSREK [D1V] | 1.57 |
| NECEKAYFYMSCLVKHKRIHSREK [D1N] | 2.72 |
| EECEKAYFYMSCLVKHKRIHSREK [D1E] | 2.47 |
| HECEKAYFYMSCLVKHKRIHSREK [D1H] | 2.61 |
| DECEKAYFYMSCLVKHKRWHSREK [I19W] | 2.81 |
| DECEKAYFYMSCLVKHKREHSREK [I19E] | 3.93 |
| DECEKAYFYMSCLVKHKRQHSREK [I19Q] | 3.42 |
| DECEKAYFYMSCLVFHKRIHSREK [K15F] | 1.87 |
| DECEKAYFYMSCLVPHKRIHSREK [K15P] | 2.02 |
| DECEKAYFYMSCLVGHKRIHSREK [K15G] | 2.29 |
| DECEKAYFYMSCLVWHKRIHSREK [K15W] | 1.53 |
| DECEKAYFYMSCLVAHKRIHSREK [K15A] | 2.56 |

| Variant | protein stability index |
| --- | --- |
| DECEKAYFYMSCLVTHKRIHSREK [K15T] | 2.16 |
| DECEKAYFYMSCLVEHKRIHSREK [K15E] | 2.54 |
| DECEKAYFYMSCLVNHKRIHSREK [K15N] | 3.16 |
| DECEKAKFYMSCLVKHKRIHSREK [Y7K] | 3.57 |
| DECEKARFYMSCLVKHKRIHSREK [Y7R] | 3.55 |
| DECEKADFYMSCLVKHKRIHSREK [Y7D] | 4.07 |
| DECEKAWFYMSCLVKHKRIHSREK [Y7W] | 2.25 |
| DECEKAFFYMSCLVKHKRIHSREK [Y7F] | 2.88 |
| DECEKAHFYMSCLVKHKRIHSREK [Y7H] | 3.35 |
| DECEKANFYMSCLVKHKRIHSREK [Y7N] | 3.61 |
| DECEKATFYMSCLVKHKRIHSREK [Y7T] | 3 |
| DECEKAAFYMSCLVKHKRIHSREK [Y7A] | 3.53 |
| DECEKASFYMSCLVKHKRIHSREK [Y7S] | 3.3 |
| DECEKAYFYCSCLVKHKRIHSREK [M10C] | 2.75 |
| DECEKAYFYASCLVKHKRIHSREK [M10A] | 3.61 |
| DECEKAYFYDSCLVKHKRIHSREK [M10D] | 3.97 |
| DECEKAYFYHSCLVKHKRIHSREK [M10H] | 3.47 |
| DECEKAYFYTSCLVKHKRIHSREK [M10T] | 3.19 |
| DECEKAYFYPSCLVKHKRIHSREK [M10P] | 3.16 |
| DECEKAYFYSSCLVKHKRIHSREK [M10S] | 3.19 |
| DECEKAYFYMSCLVKSKRIHSREK [H16S] | 3.06 |
| DECEKAYFYMSCLVKPKRIHSREK [H16P] | 2.92 |
| DECEKAYFYMSCLVKAKRIHSREK [H16A] | 2.51 |
| DECEKAYFYMSCLVKCKRIHSREK [H16C] | 1.76 |
| DECEKAYFYMSCLVKMKRIHSREK [H16M] | 1.98 |
| DECEKAYFYMSCLVKEKRIHSREK [H16E] | 3.53 |

| Variant | protein stability index |
| --- | --- |
| DECEKAYFYMSCLVKDKRIHSREK [H16D] | 3.25 |
| DECEKAYFYMSCLVKNKRIHSREK [H16N] | 2.75 |
| DECEKAYFYMSCLVKWKRIHSREK [H16W] | 2.29 |
| DECEKAYFYMSCLVKQKRIHSREK [H16Q] | 2.64 |
| DECEKAYFWMSCLVKHKRIHSREK [Y9W] | 3.49 |
| DECEKAYFRMSCLVKHKRIHSREK [Y9R] | 3.9 |
| DECEKAYFHMSCLVKHKRIHSREK [Y9H] | 3.03 |
| DECEKAYFEMSCLVKHKRIHSREK [Y9E] | 3 |
| DECEKAYFIMSCLVKHKRIHSREK [Y9I] | 2.42 |
| DECEKAYFYMSCLVKHIRIHSREK [K17I] | 1.68 |
| DECEKAYFYMSCLVKHCRIHSREK [K17C] | 1.83 |
| DECEKAYFYMSCLVKHQRIHSREK [K17Q] | 2.3 |
| DECEKAYFYMSCLVKHARIHSREK [K17A] | 2.94 |
| DETEKAYFYMSCLVKHKRIHSREK [C3T] | 2.9 |
| DELEKAYFYMSCLVKHKRIHSREK [C3L] | 1.8 |
| DEREKAYFYMSCLVKHKRIHSREK [C3R] | 2.33 |
| DEAEKAYFYMSCLVKHKRIHSREK [C3A] | 3.06 |
| DEQEKAYFYMSCLVKHKRIHSREK [C3Q] | 3.11 |
| DENEKAYFYMSCLVKHKRIHSREK [C3N] | 2.64 |
| DEFEKAYFYMSCLVKHKRIHSREK [C3F] | 1.91 |
| DEIEKAYFYMSCLVKHKRIHSREK [C3I] | 1.81 |
| DEYEKAYFYMSCLVKHKRIHSREK [C3Y] | 2.67 |
| DEPEKAYFYMSCLVKHKRIHSREK [C3P] | 2.77 |
| DECEKAYFYMSCLVKHKRIHSRRK [E23R] | 3.04 |
| DECEKAYFYMSCLVKHKRIHSRNK [E23N] | 2.38 |
